The text below walks through data of article PMC13463089, “PA200 modulates immunoproteasome structure and activity” (Nature Communications, 2026).

Numbered stars: 1 amine (or outer) side, 2 acyl side, 3 side chain; on linkers, the order of the positions; unused ones are H or OH. Peptide text beside a SMILES is read from it. * marks the point of attachment. AMC = Cc1cc(=O)oc2cc(N*)ccc12; Suc = O=C(CCC(=O)[*:2])[*:1]

The target of assay [1] is T1, s20S (standard 20S proteasome), beta5 site (Homo sapiens, UniProt P28074).
T1 construct: gene PSMB5; with Proteasome subunit beta type-6; Proteasome subunit beta type-7; Proteasome subunit alpha type-6; Proteasome subunit alpha type-2; Proteasome subunit alpha type-4; Proteasome subunit alpha type-7; Proteasome subunit alpha type-5; Proteasome subunit alpha type-1; Proteasome subunit alpha type-3; Proteasome subunit beta type-3; Proteasome subunit beta type-2; Proteasome subunit beta type-1; Proteasome subunit beta type-4
T1 sequence (P28074 60-263): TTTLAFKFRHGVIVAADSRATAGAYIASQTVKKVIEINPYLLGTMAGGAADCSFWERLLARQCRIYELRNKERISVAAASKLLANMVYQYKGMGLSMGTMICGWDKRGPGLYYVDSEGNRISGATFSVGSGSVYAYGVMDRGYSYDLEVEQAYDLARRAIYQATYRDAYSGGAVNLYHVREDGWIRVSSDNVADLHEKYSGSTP
The experiment in a line: fluorogenic AMC release. Format: biochemical. The settings on record: chymotrypsin-like (beta5) site; 200 uM substrate, 1.5 nM 20S, pH 7.6, 37 C.

In assay [2] the target is T2, i20S (20S immunoproteasome), beta5i site (Homo sapiens, UniProt P28062).
T2 construct: gene PSMB8; with Proteasome subunit beta type-9; Proteasome subunit beta type-10; Proteasome subunit alpha type-6; Proteasome subunit alpha type-2; Proteasome subunit alpha type-4; Proteasome subunit alpha type-7; Proteasome subunit alpha type-5; Proteasome subunit alpha type-1; Proteasome subunit alpha type-3; Proteasome subunit beta type-3; Proteasome subunit beta type-2; Proteasome subunit beta type-1; Proteasome subunit beta type-4
T2 sequence (P28062 73-276): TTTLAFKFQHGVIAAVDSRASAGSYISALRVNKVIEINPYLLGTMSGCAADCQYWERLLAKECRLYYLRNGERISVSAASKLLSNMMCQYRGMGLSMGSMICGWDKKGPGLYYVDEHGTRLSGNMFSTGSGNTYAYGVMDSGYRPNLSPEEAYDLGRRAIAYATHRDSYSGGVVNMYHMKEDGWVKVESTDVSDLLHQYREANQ
The experiment in a line: fluorogenic AMC release. Format: biochemical. The note with it: chymotrypsin-like (beta5i) site; 200 uM substrate, 1.5 nM 20S, pH 7.6, 37 C.

The target in assay [3] is human standard 20S proteasome (s20S) purchased from Enzo (human) (UniProt P60900). The experiment in a line: mass photometry; 20S at 120 nM titrated with PA200 (PA200:20S molar ratios from 0 to 15), Tris 50 mM pH 7.6, 2 h on ice, diluted six times to 20 nM 20S immediately before measurement; apparent KD from counts of free, singly- and doubly-capped 20S.
The target in assay [4] is human i20S purified from HEK293-EBNA cells (human) (UniProt P60900). Described as above.
In assay [5] the target is T3, recombinantly expressed and purified human PA200 (human), Q14997.
T3 chain: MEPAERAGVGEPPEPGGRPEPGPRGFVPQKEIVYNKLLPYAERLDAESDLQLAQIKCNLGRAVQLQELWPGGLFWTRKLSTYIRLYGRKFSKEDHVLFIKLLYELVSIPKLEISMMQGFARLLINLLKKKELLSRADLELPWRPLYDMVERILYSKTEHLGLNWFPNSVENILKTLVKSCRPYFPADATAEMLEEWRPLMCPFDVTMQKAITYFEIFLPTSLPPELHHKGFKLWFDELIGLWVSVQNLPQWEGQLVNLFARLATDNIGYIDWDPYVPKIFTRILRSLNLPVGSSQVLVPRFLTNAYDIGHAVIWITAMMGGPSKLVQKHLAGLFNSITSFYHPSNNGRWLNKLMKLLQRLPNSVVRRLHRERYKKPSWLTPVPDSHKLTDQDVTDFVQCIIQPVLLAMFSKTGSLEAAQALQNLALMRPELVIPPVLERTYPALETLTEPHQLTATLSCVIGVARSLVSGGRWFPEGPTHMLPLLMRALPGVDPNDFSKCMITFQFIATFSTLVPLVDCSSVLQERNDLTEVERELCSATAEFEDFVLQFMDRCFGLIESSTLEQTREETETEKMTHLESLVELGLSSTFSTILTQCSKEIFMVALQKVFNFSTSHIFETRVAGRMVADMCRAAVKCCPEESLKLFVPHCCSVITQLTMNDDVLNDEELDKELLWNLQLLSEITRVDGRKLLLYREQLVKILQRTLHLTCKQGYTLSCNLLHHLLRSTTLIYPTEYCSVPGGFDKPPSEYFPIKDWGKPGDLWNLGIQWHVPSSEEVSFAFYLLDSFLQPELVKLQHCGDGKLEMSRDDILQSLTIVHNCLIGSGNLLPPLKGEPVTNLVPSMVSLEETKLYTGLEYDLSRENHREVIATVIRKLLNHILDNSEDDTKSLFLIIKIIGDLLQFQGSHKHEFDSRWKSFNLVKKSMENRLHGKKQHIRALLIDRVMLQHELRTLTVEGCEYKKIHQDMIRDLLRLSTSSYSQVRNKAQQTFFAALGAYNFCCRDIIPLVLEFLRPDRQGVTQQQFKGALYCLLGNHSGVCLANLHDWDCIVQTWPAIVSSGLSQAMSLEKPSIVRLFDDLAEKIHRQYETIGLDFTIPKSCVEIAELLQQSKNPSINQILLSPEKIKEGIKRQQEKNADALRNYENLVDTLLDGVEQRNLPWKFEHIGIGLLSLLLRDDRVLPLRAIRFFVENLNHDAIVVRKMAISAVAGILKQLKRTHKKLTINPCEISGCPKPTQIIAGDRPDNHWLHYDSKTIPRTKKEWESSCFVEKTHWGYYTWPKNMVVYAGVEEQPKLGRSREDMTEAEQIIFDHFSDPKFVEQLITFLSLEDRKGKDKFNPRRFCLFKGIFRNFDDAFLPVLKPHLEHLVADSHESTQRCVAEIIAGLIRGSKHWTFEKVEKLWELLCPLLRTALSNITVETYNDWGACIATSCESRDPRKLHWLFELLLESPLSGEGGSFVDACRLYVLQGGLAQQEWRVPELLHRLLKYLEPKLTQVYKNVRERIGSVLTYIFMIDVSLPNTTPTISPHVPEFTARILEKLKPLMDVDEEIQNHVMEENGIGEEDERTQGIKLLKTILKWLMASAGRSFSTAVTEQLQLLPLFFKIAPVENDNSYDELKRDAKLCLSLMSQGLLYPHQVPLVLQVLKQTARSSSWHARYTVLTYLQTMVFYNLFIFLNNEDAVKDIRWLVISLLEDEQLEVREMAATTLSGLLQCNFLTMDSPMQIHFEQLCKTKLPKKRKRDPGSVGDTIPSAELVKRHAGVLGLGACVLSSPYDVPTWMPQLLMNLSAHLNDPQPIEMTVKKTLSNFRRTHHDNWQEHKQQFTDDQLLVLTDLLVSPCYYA
The description is as above. The settings on record: remark: other sources report otherwise.

For `Cc1cc(=O)oc2cc(NC(=O)[C@H](Cc3ccc(O)cc3)NC(=O)[C@@H](NC(=O)[C@H](CC(C)C)NC(=O)[C@H](CC(C)C)NC(=O)CCC(=O)O)C(C)C)ccc12` [Suc-LLVY-AMC] (Suc-LLVY-{AMC}), the “fluorogenic AMC release” value in assay [1] was “the baseline CT-L and T-L activities of the i20S and s20S were similar”; in assay [2] it was “the baseline CT-L and T-L activities of the i20S and s20S were similar”.
As to “recombinantly expressed and purified human PA200 (from UniProt Q14997 1-1843) (natural protein)”, the apparent KD of the first PA200 binding event in assay [3] and in assay [4] was 40 nM throughout. Besides, the apparent KD of the second PA200 binding event in assay [3] and in assay [4] was 150 nM each time.

B1: recombinantly expressed and purified human PA200, Q14997 1-1843 (natural protein)
chain: MEPAERAGVGEPPEPGGRPEPGPRGFVPQKEIVYNKLLPYAERLDAESDLQLAQIKCNLGRAVQLQELWPGGLFWTRKLSTYIRLYGRKFSKEDHVLFIKLLYELVSIPKLEISMMQGFARLLINLLKKKELLSRADLELPWRPLYDMVERILYSKTEHLGLNWFPNSVENILKTLVKSCRPYFPADATAEMLEEWRPLMCPFDVTMQKAITYFEIFLPTSLPPELHHKGFKLWFDELIGLWVSVQNLPQWEGQLVNLFARLATDNIGYIDWDPYVPKIFTRILRSLNLPVGSSQVLVPRFLTNAYDIGHAVIWITAMMGGPSKLVQKHLAGLFNSITSFYHPSNNGRWLNKLMKLLQRLPNSVVRRLHRERYKKPSWLTPVPDSHKLTDQDVTDFVQCIIQPVLLAMFSKTGSLEAAQALQNLALMRPELVIPPVLERTYPALETLTEPHQLTATLSCVIGVARSLVSGGRWFPEGPTHMLPLLMRALPGVDPNDFSKCMITFQFIATFSTLVPLVDCSSVLQERNDLTEVERELCSATAEFEDFVLQFMDRCFGLIESSTLEQTREETETEKMTHLESLVELGLSSTFSTILTQCSKEIFMVALQKVFNFSTSHIFETRVAGRMVADMCRAAVKCCPEESLKLFVPHCCSVITQLTMNDDVLNDEELDKELLWNLQLLSEITRVDGRKLLLYREQLVKILQRTLHLTCKQGYTLSCNLLHHLLRSTTLIYPTEYCSVPGGFDKPPSEYFPIKDWGKPGDLWNLGIQWHVPSSEEVSFAFYLLDSFLQPELVKLQHCGDGKLEMSRDDILQSLTIVHNCLIGSGNLLPPLKGEPVTNLVPSMVSLEETKLYTGLEYDLSRENHREVIATVIRKLLNHILDNSEDDTKSLFLIIKIIGDLLQFQGSHKHEFDSRWKSFNLVKKSMENRLHGKKQHIRALLIDRVMLQHELRTLTVEGCEYKKIHQDMIRDLLRLSTSSYSQVRNKAQQTFFAALGAYNFCCRDIIPLVLEFLRPDRQGVTQQQFKGALYCLLGNHSGVCLANLHDWDCIVQTWPAIVSSGLSQAMSLEKPSIVRLFDDLAEKIHRQYETIGLDFTIPKSCVEIAELLQQSKNPSINQILLSPEKIKEGIKRQQEKNADALRNYENLVDTLLDGVEQRNLPWKFEHIGIGLLSLLLRDDRVLPLRAIRFFVENLNHDAIVVRKMAISAVAGILKQLKRTHKKLTINPCEISGCPKPTQIIAGDRPDNHWLHYDSKTIPRTKKEWESSCFVEKTHWGYYTWPKNMVVYAGVEEQPKLGRSREDMTEAEQIIFDHFSDPKFVEQLITFLSLEDRKGKDKFNPRRFCLFKGIFRNFDDAFLPVLKPHLEHLVADSHESTQRCVAEIIAGLIRGSKHWTFEKVEKLWELLCPLLRTALSNITVETYNDWGACIATSCESRDPRKLHWLFELLLESPLSGEGGSFVDACRLYVLQGGLAQQEWRVPELLHRLLKYLEPKLTQVYKNVRERIGSVLTYIFMIDVSLPNTTPTISPHVPEFTARILEKLKPLMDVDEEIQNHVMEENGIGEEDERTQGIKLLKTILKWLMASAGRSFSTAVTEQLQLLPLFFKIAPVENDNSYDELKRDAKLCLSLMSQGLLYPHQVPLVLQVLKQTARSSSWHARYTVLTYLQTMVFYNLFIFLNNEDAVKDIRWLVISLLEDEQLEVREMAATTLSGLLQCNFLTMDSPMQIHFEQLCKTKLPKKRKRDPGSVGDTIPSAELVKRHAGVLGLGACVLSSPYDVPTWMPQLLMNLSAHLNDPQPIEMTVKKTLSNFRRTHHDNWQEHKQQFTDDQLLVLTDLLVSPCYYA
One may read the stoichiometry N as a count of units in the complex or per binding partner. On to B1, for which, in assay [5], the stoichiometry N was 2.
